From patent publication US20240279630, “ISOLATED CAS13 PROTEIN AND USE THEREOF” (GUANGZHOU REFORGENE MEDICINE CO., LTD., published 2024)

What was measured:
Assay in all cases: cell_activity; reversed DR/guide order
Conditions in all cases: tags: NLS fusion
Cas13m.5 = molecular target: T1, Cas13m.5 (Bacteroidetes bacterium)
T1 chain: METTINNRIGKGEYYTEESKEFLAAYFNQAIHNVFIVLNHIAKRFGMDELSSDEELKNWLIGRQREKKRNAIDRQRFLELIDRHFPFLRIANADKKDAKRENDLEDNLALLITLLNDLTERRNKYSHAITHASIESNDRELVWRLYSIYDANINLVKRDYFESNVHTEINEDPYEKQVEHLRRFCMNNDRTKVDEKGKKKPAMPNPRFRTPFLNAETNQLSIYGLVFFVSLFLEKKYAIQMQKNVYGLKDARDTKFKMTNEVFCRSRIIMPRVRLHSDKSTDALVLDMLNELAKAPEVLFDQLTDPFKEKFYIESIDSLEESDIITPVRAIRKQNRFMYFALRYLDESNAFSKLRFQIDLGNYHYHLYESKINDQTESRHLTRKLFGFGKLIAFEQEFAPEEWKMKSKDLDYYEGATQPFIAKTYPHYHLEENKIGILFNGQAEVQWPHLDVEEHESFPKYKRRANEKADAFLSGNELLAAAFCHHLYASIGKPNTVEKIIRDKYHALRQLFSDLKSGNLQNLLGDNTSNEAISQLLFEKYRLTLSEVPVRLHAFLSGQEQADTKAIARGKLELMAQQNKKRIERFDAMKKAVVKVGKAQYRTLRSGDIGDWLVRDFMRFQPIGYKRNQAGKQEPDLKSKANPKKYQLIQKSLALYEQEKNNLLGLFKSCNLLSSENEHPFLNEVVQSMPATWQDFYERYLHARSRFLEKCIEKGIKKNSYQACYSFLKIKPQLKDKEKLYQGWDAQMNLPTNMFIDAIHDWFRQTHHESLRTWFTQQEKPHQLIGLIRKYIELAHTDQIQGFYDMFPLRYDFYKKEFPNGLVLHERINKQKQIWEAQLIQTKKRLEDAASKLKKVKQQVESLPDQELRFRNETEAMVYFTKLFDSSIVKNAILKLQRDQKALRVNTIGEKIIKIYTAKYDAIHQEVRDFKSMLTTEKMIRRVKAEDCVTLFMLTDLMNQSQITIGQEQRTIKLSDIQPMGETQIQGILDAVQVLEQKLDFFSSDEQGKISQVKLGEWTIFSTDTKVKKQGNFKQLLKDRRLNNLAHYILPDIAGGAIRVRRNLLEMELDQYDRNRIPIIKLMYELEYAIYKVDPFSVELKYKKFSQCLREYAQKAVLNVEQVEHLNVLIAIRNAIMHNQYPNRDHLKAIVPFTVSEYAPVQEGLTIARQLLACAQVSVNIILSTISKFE
Description: (§1) 293T-AQp1 cells were transfected with the verification vectors targeting the endogenous gene AQp1 mRNA of Cas13 m.2, Cas13 m.3, Cas13 m.5, CasRfg.2, Cas13 m.2-r, Cas13 m.3-r, Cas13 m.5-r, and CasRfg.2-r, and a control plasmid (which was the same as the verification vector plasmid targeting the endogenous gene AQp1 mRNA of CasRx in the aforementioned Example 5) at 800 ng in a 24-well plate. The negative control group was transfected with the CasRx-BpiI plasmid in the aforementioned Example 5.
(§2) The transfection method was as follows: [0296] 1. The cells were digested by trypsin (0.25% of Trypsin, EDTA, Thermo, 11058021), counted, and plated into a 24-well plates at 2×10⁵ cells according to 500 uL per well. [0297] 2. For each transfected sample, the complex was prepared according to the following steps: [0298] a. each well of the 24-well plate into which the cells were added, were added with 50 uL of serum-free Opti-MEM I (Thermo, 25200056) reduced serum medium for dilution of the aforementioned plasmid DNA, and mixed gently; [0299] b. it was gently mixed with Lipofectamine 2000 (Thermo, 11668019) before use, and then 1.8 uL of the Lipofectamine 2000 was diluted in each well, i.e., in 50 uL of the Opti-MEM I medium. It was incubated at room temperature for 5 minutes. Note: it was continued to perform step c within 25 minutes; [0300] c. after incubation for 5 minutes, the diluted DNA was combined with the diluted Lipofectamine 2000. They were gently mixed and incubated at room temperature for 20 minutes (the solution might be cloudy visually). Note: the complex was stabilized at room temperature for 6 hours.
(§3) At 72 h after transfection, the cells were subjected to RNA extraction with a SteadyPure Universal RNA Extraction Kit AG21017 kit, and the RNA concentration was detected with an ultramicro spectrophotometer. The RNA product was reverse transcribed by using an Evo M-MLV Mix Kit with gDNA Clean for qPCR AG11728 reverse transcription kit, and the reverse transcribed product was detected by using a SYBR Green Premix Pro Taq HS qPCR Kit (Low Rox Plus) AG11720 qPCR kit.

Cas13m.3 = molecular target: T2, Cas13m.3 (uncultured Bacteroidetes bacterium)
T2 chain: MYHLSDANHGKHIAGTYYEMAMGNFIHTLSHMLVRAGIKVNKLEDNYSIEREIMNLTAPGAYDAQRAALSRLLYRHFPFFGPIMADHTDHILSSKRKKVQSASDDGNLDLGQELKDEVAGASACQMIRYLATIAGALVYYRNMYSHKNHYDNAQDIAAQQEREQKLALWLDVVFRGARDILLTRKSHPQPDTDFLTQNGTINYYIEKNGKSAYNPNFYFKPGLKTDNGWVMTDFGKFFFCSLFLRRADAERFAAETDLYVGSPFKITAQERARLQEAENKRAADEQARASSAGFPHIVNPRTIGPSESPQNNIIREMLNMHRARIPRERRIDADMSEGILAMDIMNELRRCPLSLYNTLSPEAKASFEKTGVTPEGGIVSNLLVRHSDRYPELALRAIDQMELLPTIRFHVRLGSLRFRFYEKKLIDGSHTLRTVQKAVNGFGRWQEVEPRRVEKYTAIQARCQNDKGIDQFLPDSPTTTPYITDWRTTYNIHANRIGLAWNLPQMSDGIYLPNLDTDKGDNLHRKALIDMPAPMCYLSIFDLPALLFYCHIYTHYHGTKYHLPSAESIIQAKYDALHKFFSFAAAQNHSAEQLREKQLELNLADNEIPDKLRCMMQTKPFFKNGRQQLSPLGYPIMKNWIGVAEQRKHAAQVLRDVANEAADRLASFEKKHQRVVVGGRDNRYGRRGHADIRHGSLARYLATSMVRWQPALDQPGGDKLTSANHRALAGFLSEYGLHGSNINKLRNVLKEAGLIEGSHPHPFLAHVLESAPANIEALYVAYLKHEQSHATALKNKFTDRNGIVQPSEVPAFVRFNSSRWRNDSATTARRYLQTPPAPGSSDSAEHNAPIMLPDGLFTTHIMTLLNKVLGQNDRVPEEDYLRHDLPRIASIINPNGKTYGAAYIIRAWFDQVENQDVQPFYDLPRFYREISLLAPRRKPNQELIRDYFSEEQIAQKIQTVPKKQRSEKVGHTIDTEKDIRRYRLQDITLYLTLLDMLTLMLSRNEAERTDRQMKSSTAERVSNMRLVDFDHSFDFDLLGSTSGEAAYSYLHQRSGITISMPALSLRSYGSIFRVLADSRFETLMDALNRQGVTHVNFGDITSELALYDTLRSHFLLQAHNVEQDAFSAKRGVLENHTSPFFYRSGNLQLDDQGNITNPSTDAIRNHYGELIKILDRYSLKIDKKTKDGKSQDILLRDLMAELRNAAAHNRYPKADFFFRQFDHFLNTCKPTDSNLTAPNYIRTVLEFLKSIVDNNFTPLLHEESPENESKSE
Description: as §1, §2, §3

CasRfg.2 (Cas13d) = molecular target: T3, CasRfg.2 (Cas13d) (metagenome)
T3 chain: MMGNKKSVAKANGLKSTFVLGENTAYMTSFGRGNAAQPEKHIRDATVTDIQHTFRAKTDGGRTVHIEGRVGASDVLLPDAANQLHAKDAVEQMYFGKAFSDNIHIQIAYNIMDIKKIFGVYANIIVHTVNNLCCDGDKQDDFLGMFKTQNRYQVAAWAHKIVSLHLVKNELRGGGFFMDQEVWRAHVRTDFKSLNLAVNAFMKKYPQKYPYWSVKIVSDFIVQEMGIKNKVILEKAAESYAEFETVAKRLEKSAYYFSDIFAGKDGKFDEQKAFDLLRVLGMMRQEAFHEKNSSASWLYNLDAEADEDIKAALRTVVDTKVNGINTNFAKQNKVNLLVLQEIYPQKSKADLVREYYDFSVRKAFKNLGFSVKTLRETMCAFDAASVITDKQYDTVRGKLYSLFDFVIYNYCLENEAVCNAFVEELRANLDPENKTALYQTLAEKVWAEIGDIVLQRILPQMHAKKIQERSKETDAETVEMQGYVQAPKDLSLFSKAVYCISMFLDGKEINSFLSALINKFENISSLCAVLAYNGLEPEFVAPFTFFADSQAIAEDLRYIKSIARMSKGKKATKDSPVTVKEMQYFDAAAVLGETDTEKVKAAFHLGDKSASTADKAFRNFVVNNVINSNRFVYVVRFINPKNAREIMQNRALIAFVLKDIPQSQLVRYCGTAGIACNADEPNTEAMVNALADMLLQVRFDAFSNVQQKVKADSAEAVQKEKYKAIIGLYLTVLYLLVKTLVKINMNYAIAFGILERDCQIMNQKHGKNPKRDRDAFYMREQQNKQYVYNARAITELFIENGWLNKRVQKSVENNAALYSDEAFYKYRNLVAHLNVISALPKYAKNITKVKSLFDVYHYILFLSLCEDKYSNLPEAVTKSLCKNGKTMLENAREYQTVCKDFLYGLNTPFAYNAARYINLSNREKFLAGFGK
Description: as §1, §2, §3

Cas13m.2 = molecular target: T4, Cas13m.2 (metagenome)
T4 chain: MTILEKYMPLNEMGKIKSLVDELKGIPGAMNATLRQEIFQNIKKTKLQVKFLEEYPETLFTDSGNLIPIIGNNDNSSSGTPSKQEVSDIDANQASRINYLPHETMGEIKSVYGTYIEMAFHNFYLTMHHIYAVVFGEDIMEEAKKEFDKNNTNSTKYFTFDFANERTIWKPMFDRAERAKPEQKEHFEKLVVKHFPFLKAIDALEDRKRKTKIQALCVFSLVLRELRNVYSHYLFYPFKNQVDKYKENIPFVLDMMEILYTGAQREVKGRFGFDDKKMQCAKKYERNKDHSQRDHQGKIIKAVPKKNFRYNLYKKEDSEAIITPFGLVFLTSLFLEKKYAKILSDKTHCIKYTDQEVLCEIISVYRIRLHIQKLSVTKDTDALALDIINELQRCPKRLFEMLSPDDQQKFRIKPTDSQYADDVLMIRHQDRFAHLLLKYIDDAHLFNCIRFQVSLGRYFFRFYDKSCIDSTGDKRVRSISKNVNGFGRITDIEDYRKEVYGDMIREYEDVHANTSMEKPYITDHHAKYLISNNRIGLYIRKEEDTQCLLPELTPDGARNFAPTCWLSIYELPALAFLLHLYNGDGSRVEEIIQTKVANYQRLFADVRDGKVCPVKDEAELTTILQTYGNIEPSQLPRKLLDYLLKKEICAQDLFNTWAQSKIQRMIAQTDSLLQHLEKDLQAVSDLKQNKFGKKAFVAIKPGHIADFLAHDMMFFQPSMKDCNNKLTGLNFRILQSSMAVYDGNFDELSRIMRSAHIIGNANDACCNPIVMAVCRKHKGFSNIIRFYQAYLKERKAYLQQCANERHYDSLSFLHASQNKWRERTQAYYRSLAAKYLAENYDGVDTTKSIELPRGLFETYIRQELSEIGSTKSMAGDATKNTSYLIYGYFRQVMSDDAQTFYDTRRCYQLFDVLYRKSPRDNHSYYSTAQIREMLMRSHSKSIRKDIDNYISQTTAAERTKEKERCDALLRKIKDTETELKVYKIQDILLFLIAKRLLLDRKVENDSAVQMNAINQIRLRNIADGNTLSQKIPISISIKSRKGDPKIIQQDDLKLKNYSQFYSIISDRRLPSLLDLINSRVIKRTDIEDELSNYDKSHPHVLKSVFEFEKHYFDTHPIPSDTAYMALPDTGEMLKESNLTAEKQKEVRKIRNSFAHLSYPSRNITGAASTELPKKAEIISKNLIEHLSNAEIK
Description: as §1, §2, §3

B1: AQp1 gRNA Cas13m.5-r (DR-guide) ; AQp1 mRNA site (20 nt guide) (ssRNA ; ssRNA)
RNA 1: GUUGUGUGUGCCUUUCAAAUUGAAGGCGUUCCCAACGAAGACAAAGAGGGUCGUGG
RNA 2: CCACGACCCUCUUUGUCUUC
activity (Cas13m.5): 0.74 relative mRNA level

B2: AQp1 gRNA Cas13m.3-r (DR-guide) ; AQp1 mRNA site (20 nt guide) (ssRNA ; ssRNA)
RNA 1: GUUGUAGAAGCCGUUCAUUCGGGACGGUAUGACAACGAAGACAAAGAGGGUCGUGG
RNA 2: CCACGACCCUCUUUGUCUUC
activity (Cas13m.3): 0.78 relative mRNA level

B3: AQp1 gRNA CasRfg.2-r (guide-DR) ; AQp1 mRNA site (20 nt guide) (ssRNA ; ssRNA)
RNA 1: GAAGACAAAGAGGGUCGUGGGGUUUUACACCCGUGUAAAACUACACAGUUCUAAAAC
RNA 2: CCACGACCCUCUUUGUCUUC
activity (CasRfg.2 (Cas13d)): 0.67 relative mRNA level

B4: AQp1 gRNA Cas13m.2-r (DR-guide) ; AQp1 mRNA site (20 nt guide) (ssRNA ; ssRNA)
RNA 1: GUUGUAGAUGACCUCGUUUUGGAGGGGAAACACAACGAAGACAAAGAGGGUCGUGG
RNA 2: CCACGACCCUCUUUGUCUUC
activity (Cas13m.2): 0.83 relative mRNA level
